Assay results: PMC10499821

Biological target: Nsp3 ADRP (SARS-CoV-2) (UniProt P0DTD1)
Test: fluorescence polarisation

DGGTDGKAQLVVHSA [PARP10_(700–715)] showed a Kd of 300 µM.
